Two substances from patent US7479276 can be followed below.

Test [1] deals with human transferrin receptor (TfR) (human) (UniProt P02786). Kind of test: FACS on JSQ-3 cells, percent of cells above the fluorescence threshold.
Test [2] has the same target. Kind of test: indirect cellular ELISA on fixed JSQ-3 cells; highest concentration of Hb21 (100 µl), positive control.
For test [3] the target is unchanged. Kind of test: FACS on DU145 cells, percent of cells above the fluorescence threshold.
Test [4] shares this target. Kind of test: indirect cellular ELISA on fixed JSQ-3 cells, anti-His detection; 1.5 µg of protein.
Test [5] has the same target. Kind of test: indirect cellular ELISA on fixed JSQ-3 cells, anti-His detection.
Test [6] has the same target. Kind of test: indirect cellular ELISA on fixed JSQ-3 cells, anti-His detection; 3 µg of protein.
Test [7] has the same target. Briefly: indirect cellular ELISA on fixed JSQ-3 cells, anti-His detection; 0.6 µg of protein.

Sequence of human transferrin receptor (TfR) (human) (P02786 whole entry): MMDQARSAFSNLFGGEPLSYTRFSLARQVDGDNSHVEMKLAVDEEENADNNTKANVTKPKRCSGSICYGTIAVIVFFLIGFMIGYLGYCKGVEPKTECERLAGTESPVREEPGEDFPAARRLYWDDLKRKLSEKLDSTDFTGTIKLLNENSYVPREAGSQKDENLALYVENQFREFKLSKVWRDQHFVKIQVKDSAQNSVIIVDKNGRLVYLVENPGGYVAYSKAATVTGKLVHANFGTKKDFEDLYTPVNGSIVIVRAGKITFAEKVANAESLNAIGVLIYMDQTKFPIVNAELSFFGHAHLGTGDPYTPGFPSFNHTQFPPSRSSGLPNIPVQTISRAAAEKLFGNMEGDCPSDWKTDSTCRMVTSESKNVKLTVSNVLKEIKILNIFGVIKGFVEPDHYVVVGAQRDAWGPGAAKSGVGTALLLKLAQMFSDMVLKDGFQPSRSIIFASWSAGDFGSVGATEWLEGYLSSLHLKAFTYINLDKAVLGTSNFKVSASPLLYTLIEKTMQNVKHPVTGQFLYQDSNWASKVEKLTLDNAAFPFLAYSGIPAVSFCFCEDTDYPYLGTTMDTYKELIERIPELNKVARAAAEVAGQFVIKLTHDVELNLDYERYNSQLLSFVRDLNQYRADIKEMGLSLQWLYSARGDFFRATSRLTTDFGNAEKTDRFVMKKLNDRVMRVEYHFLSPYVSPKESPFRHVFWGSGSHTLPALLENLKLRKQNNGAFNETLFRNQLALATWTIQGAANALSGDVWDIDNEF

Regarding “HB21 anti-transferrin receptor monoclonal antibody”, the results for the % Positive in test [1] and in test [3] were 99.4% and 98.7%, respectively. In test [2], this substance had an OD490 of 0.033 OD490.

In the case of “TfRscFv containing a C-terminal cysteine, with a His tag”, the OD490 stood at 0.1 OD490 in test [4], 0.235 OD490 in test [5], 0.132 OD490 in test [6] and 0.06 OD490 in test [7].
